Laboratory results: US20210292393A1 (published 2021)
Residue numbers refer to the chain shown, from its start.

B1: antibody 548 (antibody, V domains shown)
VH: QVQLVESGGGVVQPGRSLRLSCAASGFTFSSYAMHWVRQAPGKGLEWVAVISYDGSNKYYADSVKGRFTISRDNSKNTLYLQMNNLRAEDTAVYYCAKSGSGSYLSAFDIWGQGTMVTVSS
VL: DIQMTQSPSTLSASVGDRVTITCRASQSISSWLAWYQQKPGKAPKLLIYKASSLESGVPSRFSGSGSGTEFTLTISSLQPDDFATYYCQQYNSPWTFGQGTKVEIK
B2: antibody 444 (antibody, V domains shown)
VH: QVQLVESGGGLVKPGGSLRLSCAASGFTFSDYYMSWIRQAPGKGLEWVSYISSSGSTIYYADSVKGRFTISRDNAKNSLYLQMNSLRAEDTAVYYCARERKVVVAATRNYYYYYGMDVWGQGTTVTVSS
VL: SYELTQPPSVSVSPGQTARITCSGDALPKQYAYWYQQKPGQAPVLVIYKDSERPSGIPERFSGSSSGTTVTLTISGVQAEDEADYYCQSADSSTWVFGGGTKLTVL
B3: antibody 443 (antibody, V domains shown)
VH: QMRLEESGPGLVKPSETLSLTCTVAGGSITSSDYFWGWLRQSPGKGLEWIASTYHGGSIQYHPALKSRVTISVDASKNQISLRLSSVTAADTAVYYCARDRGDDGPMGTYYFDHWGQGALVTVSS
VL: QSVLTQPPSVSGAPGQSVTISCAGSSSNIGAGHDVHWYQQIPGTAPKLLICGNTNRPSGVPERFSGSRSGTSASLAITGLQAEDEAVYYCQSYDPSHVFFGTGTKLTVL
B4: antibody 477 (antibody, V domains shown)
VH: QVQLVESGGGVVQPGRSLRLSCAASGITFSSYAMHWVRQAPGKGLEWVAVISYDGSDKYHADSVKGRFAISRDNSKNTLYLQMNSLRAEDTAVYYCAKDKGIAVAGTGWIRPDPEYYFDYWGQGTLVTVSS
VL: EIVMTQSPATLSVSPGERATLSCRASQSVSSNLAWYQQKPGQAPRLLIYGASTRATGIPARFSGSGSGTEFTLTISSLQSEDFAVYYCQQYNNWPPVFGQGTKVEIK
B5: antibody 475 (antibody, V domains shown)
VH: QVQLVESGGGVVQPGRSLRLSCAASGFTFSSYAMHWVRQAPGKGLEWVTFISHEGSNKYYADSVKGRFTISRDNSKNTLYLQMNSLRAEDTAVYYCARTFEYSSSSATGDFDYWGQGTLVTVSS
VL: QSVLTQPPSVSGAPGQRVTISCTGSSSNIGAGYDVHWYQQLPGTAPKLLIYGNSNRPSGVPDRFSGSKSGTSASLAITGLQAEDEADYYCQSYDSSLSGVVFGGGTKLTVL
B6: antibody 474 (antibody, V domains shown)
VH: EVQLVESGGGLVQPGGSLRLSCAASGFTFSSYWMHWVRQAPGKGLVWVSRINSDGSSTSYADSVKGRFTISRDNAKNTLYRQMNSLRAEDTAVYYCALGPLDIVGSYYYYGMDVWGQGTTVTVSS
VL: NFMLTQPHSVSESPGKTVTISCTGSSGSIASNYVQWYQQRPGSAPTTVIYEDNQRPSGVPDRFSGSIDSSSNSASLTISGLKTEDEADYYCQSYDSSNQDVVFGGGTKLTVL
B7: antibody 546 (antibody, V domains shown)
VH: QVQLVESGGGVVQPGRSLRLSCAASGFTFSSYGMHWVRQAPGKGLEWVAVIWYDGSNKYYADSVKGRFTISRDNSKNTLYLQMNSLRAEDTAVYYCARNCGGDCVAGDGFDYWGQGTLVTVSS
VL: DIQMTQSPSSLSASVGDRVTITCRASQSISSYLNWYQQKPGKAPNLLIYAASSLQSGVPSRFSGSGSGTDFTLTISSLQPEDFATYYCQQSYSALTWTFGQGTKVEIK
B8: antibody 454 (antibody, V domains shown)
VH: QVQLVQSGAEVKKPGASLKVSCKASGYIFTGYYMHWVRQAPGQGLEWMGWISPNSGGTKYAQKFQGRVTMTRDTSISTAYMELSRLRSDDSAVYYCAREPYYDILTGYYTPRRYLDYWGQGTLVTVSS
VL: QSALTQPASVSGSPGQSITISCTGTSSDVGDYNYVSWYQQHPGKVPKLMIYDVSHRPSGVTNRFSGSKSGNTASLTISGLRAEDEADYYCSSYTSSSTYVFGTGTKVTVL
B9: antibody 556 (antibody, V domains shown)
VH: QVQLVESGGGVVQPGRSLRLSCAASGFTFSSYAMHWVRQAPGKGLEWVAVISYDGSDKYYADSVKGRVTISRDNSKNTLYLQMNSLRVEDTAVFYCAKDDCSGGVCFPDYWGQGTLVTVSS
VL: B8 VL with D31G, V45A, D52E, H55I, T61S, R81Q, D87A, Y99L, T103G, V107L
B10: antibody 544 (antibody, V domains shown)
VH: QVQLQQWGAGLLKPSETLSLTCAVYGGSFSGYYWSWIRQPPGKGLEWIGEINHSGSTNYNPSLKSRVTISVDTSKNQFSLKLSSVTAADTAVYYCARGFKWFGELLFGAQGTLVTVSS
VL: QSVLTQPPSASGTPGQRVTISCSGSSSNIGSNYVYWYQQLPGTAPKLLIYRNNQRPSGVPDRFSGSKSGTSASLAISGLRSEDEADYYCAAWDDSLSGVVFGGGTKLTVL
B11: antibody 452 (antibody, V domains shown)
VH: QVQLVESGGGLVKPGGSLRLSCAASGFTFSDYYLSWIRQAPGKGLEWVSYISSSGSNIYYADSVKGRFTISRDNAKNSLYLQMNSLRADDTAVFYCARAGRYCSGGSCRVEYFQHWGQGTLVTVSS
VL: SYELTQPPSVSVSPGQTARITCSGDALPKQYAYWYQQKPGQAPVLVIYKDNERPSGIPERFSGSSSGTTATLTISGVQAEDEADYYCQSADSSGTVVFGGGTKLTVL
B12: antibody 439 (antibody, V domains shown)
VH: QVQLVESGGGVVQPGRSLRLSCAASGFTFSSYAMHWVRQAPGKGLEWVAVISYDGSNKYYADSVKGRFTISRDNSKNTLYLQMNSLRAEDTAVYYCARPPRGGSYYPFDPWGQGTLVTVSS
VL: not shown
B13: antibody 446 (antibody, V domains shown)
VH: B12 VH with P100N, R101S, G103S, S104Y, Y105F, Y106G, P107Y, D109Q, P110H
VL: QSVLTQPPSVSGAPGQRVTISCTGSSSNIGAGYDVHWYQQLPGTAPKLLIYGNSNRPSGVPDRFSGSKSGTSASLAITGLQAEDEADYYCQSYDSSLSGFYVFGTGTKVTVL
B14: antibody 470 (antibody, V domains shown)
VH: not shown
VL: QSALTQPASVSGSPGQSITISCTGTSSDVGSYNLVSWYQQHPGKAPKLMIYEVSKRPSGVSNRFSGSKSGNTASLTISGLQAEDEADYYCCSYAGSSTLVFGGGTKLTVL
B15: antibody 485 (antibody, V domains shown)
VH: QVQLQESGPGLVKPSGTLSLTCAVSGASISSSNWWSWVRQPPGKGLEWIGEIYHSGSTNYNPSLKSRVTISVDKSKNQFSLKLSSVTAADTAVYYCARRSYYGSGSYYPFDYWGQGTLVTVSS
VL: B14 VL with V53G, S54R, L99Y, G103T, L107V
B16: antibody 476 (antibody, V domains shown)
VH: QVQLVQSGSELKKPGASVKVSCKASGYTFTSYAMNWVRQAPGQGLEWMGWINTNTGNPTYAQGFTGRFVFSLDTSVSTAYLQISSLKAEDTGVYYCARDHELPNSSSWFGHFEYWGQGTLVTVSS
VL: SYELTQPPSVSVSPGQTARITCSGDALPKQYAYWYQQKAGQAPVLVIYKDSERRSGIPERFSGSSSGTTVTLTISGVQAEDEADYYCQSADSSGTSVVFGGGTKLTVL
B17: antibody 545 (antibody, V domains shown)
VH: B16 VH with S85V
VL: B16 VL

What was measured:
[1] = biological target: SARS-CoV spike protein (full-length trimeric, conjugated to optically encoded beads) (SARS-CoV, UniProt P59594 14-1190)
[2] = biological target: SARS-CoV spike protein (full length, trimeric) (SARS-CoV, UniProt P59594 14-1190)

Row | Binder | fold over isotype control (median fluorescence intensity) [1] | fold over isotype control (median fluorescence) [2]
1 | B1 | 18.1 fold over isotype | –
2 | B2 | – | 1 fold over isotype
3 | B3 | – | 1.03 fold over isotype
4 | B4 | – | 1.3 fold over isotype
5 | B5 | – | 1.18 fold over isotype
6 | B6 | – | 1.1 fold over isotype
7 | B7 | 1.18 fold over isotype | –
8 | B8 | – | 1.1 fold over isotype
9 | B9 | 1.09 fold over isotype | –
10 | B10 | 1.05 fold over isotype | –
11 | B11 | – | 1.09 fold over isotype
12 | B12 | – | 1.23 fold over isotype
13 | B13 | – | 6.58 fold over isotype
14 | B14 | – | 1.09 fold over isotype
15 | B15 | – | 1.12 fold over isotype
16 | B16 | – | 1.04 fold over isotype
17 | B17 | 1.13 fold over isotype | –
